This note sets out measurements from US20260043816A1 (AC IMMUNE, published 2026).

Broadly, the EC50 is the concentration giving half of the maximal effect. A word on the Kd: it is the constant that tells how readily two partners part at equilibrium. Low values mean tighter binding, high ones weaker binding. By koff is commonly meant a measure of how fast the partners let go of each other. A high value points to a short-lived complex. As a reminder, the kon is the rate constant with which the complex forms. A low value points to slower complex formation.

Assay [1] addresses T1, Peptide 29 (human, phosphoserine at pS409 and pS410 (human TDP-43 numbering, in the SEQ ID NO: 9 part); Trioxatridecan-succinamic acid (Ttds) linker between SEQ ID NO: 7 and SEQ ID NO: 9).
T1 peptide: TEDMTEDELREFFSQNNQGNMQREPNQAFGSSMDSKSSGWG
Kind of assay: pairing sandwich ELISA, antibody coated as capture, target titrated. As to the method: (§1) The capacity of antibodies to bind phospho TDP-43 and TDP-43 was determined using a sandwich enzyme-linked immunosorbent assay (ELISA), where each antibody was paired with a second TDP-43 antibody previously characterized for TDP-43 binding and performance in sandwich immunoassays, ACI-7071-809F12-Ab1-rec2 (as described in WO2020234473) or ACI-7069-636E5-Ab1 (as described in WO2020234473). ELISA plates (Nunc™ Edge™ 96-Well, Non-Treated, Flat-Bottom Microplate, ThermoFisher Scientific, Denmark) were coated with 5 μg/mL of anti-phospho TDP-43 or anti-TDP-43 antibodies in carbo/bicarbonate buffer, overnight at 4° C. Plates were then washed with 0.05% Tween-20/PBS and blocked with 1% bovine serum albumin (BSA) in 0.05% Tween-20/PBS for 1 hour at 37° C. The plates were then washed again as described above.
(§2) Serial-dilutions of target peptide or protein were then added to the plates. For assays with anti-phospho TDP-43 antibodies, one of four peptide conjugates (peptides 11, 23, 28, or 29) each composed of two TDP-43 sequences, one phosphorylated and one non-phosphorylated, conjugated together with a Trioxatridecan-succinamic acid linker (Ttds, binding regions and sequences shown in Table 4) were used. Peptides 11, 23, 28, and 29 were added in a 10-fold serial dilution starting at 0.5 μM. […] The plate was read at 450 nm using an ELISA plate reader (Tecan, Switzerland).
(In general: In an ELISA, binding on a coated surface is turned into a signal by an enzyme label.)

Assay [2] addresses T1, Peptide 29. Kind of assay: pairing sandwich ELISA, biotinylated antibody as detector, target titrated. As to the method: as §1, §2
Assay [3] has as its target T1, Peptide 29. Kind of assay: SPR Biacore 8K, antibody captured, peptide analyte, single-cycle kinetics, 1:1 fit. As for the experimental part: (§3) Each cycle started with the non-covalent capture of the antibody which were diluted in running buffer to a final concentration of 5 μg/mL and injected for 120 sec with a flow rate of 10 μL/min. Antibodies being measured were captured in channels […], leaving Fc 1 as a blank Fc. Capture levels were evaluated following a 120 sec stabilization period after each antibody injection. ACI-7071-809F12-Ab1-rec2 was used as control, binding to the non-phosphorylated sequences represented in peptides 28 and 29.
(§4) Injections of peptides 28 or 29 were performed using single-cycle kinetics with increasing concentrations ranging from 1.2 to 100 nM prepared as a 3-fold serial dilution. Injections were performed with contact times of 300 sec/injection at a flow rate of 30 μL/min. A dissociation phase of 900 sec followed the final injection. Sensor surface was regenerated by two injection of 10 mM Glycine-HCl pH 1.7 at a flow rate of 10 μL/min for 60 sec, followed by a stabilization period of 120 sec. Results obtained from single-cycle kinetics were double-referenced using the blank Fc 1 and buffer cycles and evaluated by Biacore 8K evaluation software (Cytiva). The following kinetic parameters were obtained using the 1:1 binding fit model with variable Reflective Index (RI): association rate constant (ka), dissociation rate constant (kd), affinity constant (KD) and saturation response (Rmax).
For orientation: SPR reads the build-up and loss of mass on a sensor chip optically.

Assay [4] concerns the target T1, Peptide 29. Kind of assay: SPR Biacore 8K, antibody from purified hybridoma supernatant captured, peptide analyte, 1:1 fit. As for the experimental part:
as §3, §4

The target of assay [5] is T2, biotinylated TDP-43 phospho peptide 370-384 (pS375 and pS379) (human).
T2 peptide: Biotin-GNNSY[pS]GSN[pS]GAAIG
Kind of assay: capture ELISA, antibody on anti-mouse IgG, biotinylated peptide. As for the experimental part: (§5) Briefly, for capture detection in ELISA, wells of 96-well plates were coated with 5 μg/mL goat anti-mouse IgG (Fc gamma fragment specific), in carbonate buffer, overnight at 4° C. Plates were then washed with 0.05% Tween-20/PBS and blocked with 1% bovine serum albumin (BSA) in 0.05% Tween-20/PBS for 1 hour at 37° C. Phospho TDP-43 antibodies were then added at 5 μg/mL and incubated for 2 hours at 37° C. after which the plates were washed as described above. Biotinylated peptides representing each of the phospho sites, or non-phosphorylated, were incubated at 0.5 mM in 0.1% BSA and PBS for 1 hour at 37° C. after which the plates were washed. A streptavidin-HRP-conjugate (R&D Systems, Minnesota, United States) was added at 1/200 dilution in 0.05% Tween-20/1% BSA in PBS for 45 minutes in the dark at ambient temperature. After the final wash, plates were incubated with TMB (Sigma-Aldrich, Switzerland), an HRP substrate solution, and read at 405 nm using an ELISA plate reader (Tecan, Switzerland).

Assay [6] deals with T3, biotinylated TDP-43 phospho peptide 370-384 (pS375) (human).
T3 peptide: Biotin-GNNSY[pS]GSNSGAAIG
Described as above. As for the experimental part: as §5

The target in assay [7] is T4, biotinylated TDP-43 phospho peptide 370-384 (pS379) (human).
T4 peptide: Biotin-GNNSYSGSN[pS]GAAIG
The assay is described as above. As to the method:
as §5

In assay [8] the target is T5, biotinylated TDP-43 phospho peptide 401-413 (pS409 and pS410) (human).
T5 peptide: Biotin-FGSSMDSK[pS][pS]GWG
The description is as above. As to the method: as §5

Assay [9] has as its target T6, biotinylated TDP-43 phospho peptide 401-413 (pS409) (human).
T6 peptide: Biotin-FGSSMDSK[pS]SGWG
The assay is described as above. As for the experimental part:
as §5

Assay [10] addresses T7, biotinylated TDP-43 phospho peptide 401-413 (pS410) (human).
T7 peptide: Biotin-FGSSMDSKS[pS]GWG
The assay is described as above. As for the experimental part: as §5

Assay [11] deals with T8, biotinylated non-phosphorylated TDP-43 peptide 366-414 (human, biotin on the N-terminus).
T8 peptide: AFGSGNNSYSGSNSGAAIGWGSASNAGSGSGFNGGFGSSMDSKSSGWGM
Described as above. As to the method:
as §5

Square brackets hold non-standard residues; d marks the D form. Ends that are not written are not given here. * marks the point of attachment. Biotin = O=C1N[C@H]2[C@H](CS[C@H]2CCCCC(=O)*)N1; pS = N[C@@H](COP(=O)(O)O)C(=O)O

B1: ACI-8072-946.8H6-Ab1 (antibody, V domains shown)
VH: EEHLVESGGGLVKPGGSLKLSCAASGFTFSDYGMQWVRQAPEKGLEWVAYISSGSSTIYYEDTVKGRFTISRDNAKNTLFLQMTSLRSEDTAMYYCVRPYDNYGQGTLVTVSA
VL: DVLMTQTPLSLPVSLGDQASISCRSSQSIVHSNGNTYLEWYLQKPGQSPKLLIYKVSNRFSGVPDRFSGSGSGTDFTLKISRVEAEDVGVYYCFQGSHVPRTFGGGTKLEIK
notes: also called 946.8H6D10; pS409/pS410 TDP-43 antibody
The molecule B1 returned a half-maximal effective concentration (EC50) with Peptide 29 [1] of 0.111 nM. Besides, the EC50 with Peptide 29 [2] turned out to be 1.12 nM. In the assay with Peptide 29 [3], this molecule displayed a Kd of 3.28 nM, a koff of 0.00469 s⁻¹ and a kon of 1.43e+06 M⁻¹ s⁻¹.

B2: ACI-8072-946.9D6-Ab1 (antibody, V domains shown)
VH: EEHLVESGGGLVKPGGSLKLSCAASGFTFSDYGMQWVRQAPEKGLEWVAYISSGSSTIYYEDTVKGRFTISRDNAKNTLFLQMTSLRSEDTAMYYCVRPYDNYGQGTLVTVSA
VL: DIVLTQSPASLAVSLGQRATISCRASKSVSTSGYSYMHWYQQKPGQPPKLLIYLASNLESGVPARFSGSGSGTDFTLNIHPVEEEDAATYYCQHSRELPWTFGGGTKLEIK
notes: Data marked * were generated with hybridoma / purified hybridoma supernatant; also called 946.9D6F3
In the assay with Peptide 29 [4], B2 yielded a Kd of 2.29 nM, a koff of 0.000707 s⁻¹ and a kon of 309000 M⁻¹ s⁻¹.

B3: ACI-8072-946.4G5-Ab1 (antibody, V domains shown)
VH: EVQLVESGGGLVKPGGSLKLSCAASGFTFSDYGMHWVRQAPEKGLEWVAYISSGSSTIYYADTVKGRFTMSRDNAKNTLFLQMTSLRSEDTAMYYCSRPYGNYGQGTLVTVSA
VL: DVLMTQTPLSLPVSLGDQASISCRSSQSIVHSNGNTYLEWYLQKPGQSPKLLIYKVSNRFSGVPDRFSGSGSGTDFTLKISRVEAEDLGVYYCFQGSHVPRTFGGGTKLEIK
notes: also called 946.4G5F1; pS409/pS410 TDP-43 antibody
As for B3, the midpoint of the response with Peptide 29 [1], the EC50, lay at 0.196 nM. The molecule also registered a 50% effective concentration (EC50) with Peptide 29 [2] of 1.96 nM. In the assay with Peptide 29 [3], this molecule had a dissociation constant (Kd) of 1.68 nM, an off-rate constant (koff) of 0.000817 s⁻¹ and a kon of 487000 M⁻¹ s⁻¹.

B4: ACI-8071-943.12A8-Ab1 (antibody, V domains shown)
VH: EVQLVESGGGLVHPKGSLQLSCAASGFTFNTYTMHWVRQAPGKGLEWVARIRSKRSNYATYYADSVKDRFTISRDDSQSMLYLQMNNLKTEDTAIYYCVRGTGSYWGQGTSVTVSS
VL: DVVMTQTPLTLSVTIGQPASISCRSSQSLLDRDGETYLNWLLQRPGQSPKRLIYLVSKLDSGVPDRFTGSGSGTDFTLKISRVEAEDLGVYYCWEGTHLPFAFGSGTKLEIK
notes: also called 943.12A8B4; pS403/pS404 TDP-43 antibody
For B4, the binding result in [5], in [6], in assay [7], in [8], in assay [9] and in assay [10] was “no binding (tested: peptide at 0.5 mM)” each time. In [11], the binding result is “no binding (tested: peptide at 0.5 mM)”.

B5: ACI-8071-943.7H9-Ab1 (antibody, V domains shown)
VH: EIQLQQSGTVMARPGASVKMSCKTSGYIFTNYWMHWVKQRPGQGLDWIGTIYPGNSDTDYNQNFKGKAKLTAVTSASTAYMELSSLTNEDSAVYFCIRGGWGGFPYWGQGTLVTVSA
VL: DVVMTQIPLSLPVSLGDQASISCRSSQRLVHSNGNTYLHWYLQKPGQSPKFLIHKVSNRFSGVPDRFSGSGSGTDFTLKIRRVEAEDLGVYFCCQSTHVPYTFGGGTKLEIK
notes: also called 943.7H9H8; pS403/pS404 TDP-43 antibody
On to B5, for which the binding result in assay [5], in [6], in [7] and in assay [11] was “no binding (tested: peptide at 0.5 mM)” in each case.

B6: ACI-8071-943.7D3-Ab1 (antibody, V domains shown)
VH: QVQLQQPGTELVKPGASVKLSCKASGYTFTRYWMHWMKQRPGQGLEWIGNINPSDGGTNYNEKFKNKASLTVDKSSSTAYMQLSRLTSEDSAVYYCARRGSGYWGQGTTLTVSS
VL: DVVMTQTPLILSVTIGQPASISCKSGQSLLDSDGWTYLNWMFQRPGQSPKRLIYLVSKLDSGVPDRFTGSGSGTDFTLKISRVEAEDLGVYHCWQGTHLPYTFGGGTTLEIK
notes: also called 943.7D3E2; pS403/pS404 TDP-43 antibody
With B6, the binding result in assay [5], in assay [6], in assay [7] and in assay [11] was “no binding (tested: peptide at 0.5 mM)” each time.

B7: ACI-8071-943.2E6-Ab1 (antibody, V domains shown)
VH: QVQLQQPGTELVKPGASVKLSCKASGYTFTSYWMHWVKQRPGQGLEWIGNINPINSDTNYNEKFKTKATLTVDKSSSTAYMQLSSLTSEDSAVYYCARRGSGYWGQGTTLTVSS
VL: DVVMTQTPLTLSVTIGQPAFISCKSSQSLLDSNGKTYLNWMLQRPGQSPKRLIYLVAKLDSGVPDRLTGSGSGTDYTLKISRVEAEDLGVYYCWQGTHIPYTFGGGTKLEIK
notes: also called 943.2E6E10; pS403/pS404 TDP-43 antibody
Take B7: the binding result in assay [5], in assay [6], in assay [7], in [8], in [9] and in assay [10] was “no binding (tested: peptide at 0.5 mM)” throughout. In addition, the binding result in [11] was “no binding (tested: peptide at 0.5 mM)”.
